Test results: publication PMC5428028, “Role for the ATPase inhibitory factor 1 in the environmental carcinogen-induced Warburg phenotype” (Scientific Reports, 2017)

Biological target: the molecule itself
Assay: western blot (band of dimer size after electrophoresis); mitochondrial fractions of F258 cells exposed to B[a]P (50 nM or 1 µM, 48 h), lysed in RIPA buffer; 24 kDa band beside the 12 kDa monomer; gel conditions not shown

B1: ATPase inhibitory factor 1 (IF1) (natural protein, rat (endogenous in F258), UniProt Q03344 26-107, looked up)
chain: GSDSSESMDSGAGSIREAGGAFGKREKAEEDRYFREKTREQLAALKKHHEDEIDHHSKEIERLQKQIERHKKKIKYLKNSEH
notes: monomeric form printed as 12 kDa, dimer band as 24 kDa; Detected with a polyclonal rabbit anti-ATPIF1 antibody, used only as a tool; The western blot methods are in the Supplementary Information; also called ATPIF1; source: endogenous, mitochondrial fraction of F258 rat liver epithelial cells, lysed in RIPA buffer
  stoichiometry N: 2
